The values that follow come from US20260055150A1 (REGENTS OF THE UNIVERSITY OF MICHIGAN, published 2026).

For assay [1], the target named is T1, epidermal growth factor receptor (EGFR) on patient-derived organoid cells (human, UniProt P00533 25-1210).
T1 construct: whole, on cells
In words: in vivo wide-field fluorescence endoscopy of PDO implanted in mouse colon, peptide given intravenously.
Method: Cultures were harvested from Matrigel in cold DPBS, triturated 30× with a 1 mL pipette tip, and centrifuged at 300 g for 3 min at 4° C. […] The colonoid fragments were further dissociated by 20× pipetting with a 1 mL pipette tip. […] Slow centrifugation at 100 g was performed to reduce the single cell content. The cell aggregates were resuspended in cold DPBS supplemented with 5% Matrigel and 10 µM Y27632. 1.8×10⁶ cell aggregates in 200 μL were transplanted per mouse as described previously. The implants were monitored over time using a rigid wide-field endoscope and a flexible fiber-coupled endomicroscope to localize the PDO and visualize EGFR expression with sub-cellular resolution.
Organoids grown in vitro (FIG. 17A) were implanted on day 7 post-DSS treatment. For implantation, in vitro grown PDOs were disrupted into smaller aggregates in 200 μL volume and were implanted intrarectally in anesthetized mice. The rectum was closed immediately using tissue glue. After several weeks to establish viability, the implanted PDOs were imaged using a rigid wide-field endoscope. The fluorescently-labeled peptide QRH*-Cy5 was administered intravenously at a dose of 300 μM in 200 μL of PBS.

For assay [2], the target named is T2, claudin-1 on colonic patient-derived organoid cells (human, UniProt O95832 1-211).
T2 construct: whole, on cells; also called CLN1
T2 sequence (looked up): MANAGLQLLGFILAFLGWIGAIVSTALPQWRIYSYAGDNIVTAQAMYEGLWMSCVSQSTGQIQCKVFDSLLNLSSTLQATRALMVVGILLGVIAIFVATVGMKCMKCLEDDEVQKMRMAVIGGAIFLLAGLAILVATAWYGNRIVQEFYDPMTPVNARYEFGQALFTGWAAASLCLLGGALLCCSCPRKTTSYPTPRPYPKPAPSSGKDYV
As to the kind of experiment: ex vivo immunofluorescence staining of resected tissue.
From the text: After completion of in vivo imaging, the results were validated using IF.

Where no end group is shown, it is not given here.

As for QRHKPRE (also: Cy5 label, attachment not given here, also called Cy5QRH*-Cy5) [QRH*-Cy5 (QRHKPRE labeled with Cy5)], the binding result in assay [1] is recorded as “binds”.

B1: RTS*-Cy5.5 (Cy5.5-labeled peptide RTSPSSR) (peptide)
peptide: RTSPSSR
modifications: also: Cy5.5 label, attachment not given here
notes: also called peptide specific for claudin-1
Take B1: in assay [2], the binding result is recorded as “binds”.
